Consider 7 molecules from PMC7721647, “The Human RNA Helicase DDX21 Presents a Dimerization Interface Necessary for Helicase Activity” (iScience, 2020).

Numbering of substitutions follows the chain as printed.

Series [1] deals with DDX21_(Core-DD) (human). The series can be described thus: SEC-MALS; purified DDX21 constructs alone; conditions in the Transparent Methods (not shown).
Series [2] has as its target DDX21_(Core-DD) (human). The series can be described thus: SEC-SAXS; SAXS coupled to size exclusion chromatography; oligomeric state from SAXS molecular weight estimates (Table S3).
In series [3] the target is DDX21_(Core-DD) (human). The series can be described thus: mass photometry; purified proteins alone in the low nanomolar range (30 and 15 nM); monomer to dimer.
Series [4] deals with the molecule itself. The series can be described thus: cell-based or functional assay.
Series [5] concerns the molecule itself. The series can be described thus: SEC-MALS; purified DDX21 constructs alone; conditions in the Transparent Methods (not shown). Background: SEC sorts molecules by how far they enter the pores of the column.
Series [6] concerns the molecule itself. The series can be described thus: mass photometry; DDX21Fl-R-loop complex at 30 nM.
The next series has as its target T1, DDX21Fl (human, UniProt Q9NR30 1-783).
T1 sequence: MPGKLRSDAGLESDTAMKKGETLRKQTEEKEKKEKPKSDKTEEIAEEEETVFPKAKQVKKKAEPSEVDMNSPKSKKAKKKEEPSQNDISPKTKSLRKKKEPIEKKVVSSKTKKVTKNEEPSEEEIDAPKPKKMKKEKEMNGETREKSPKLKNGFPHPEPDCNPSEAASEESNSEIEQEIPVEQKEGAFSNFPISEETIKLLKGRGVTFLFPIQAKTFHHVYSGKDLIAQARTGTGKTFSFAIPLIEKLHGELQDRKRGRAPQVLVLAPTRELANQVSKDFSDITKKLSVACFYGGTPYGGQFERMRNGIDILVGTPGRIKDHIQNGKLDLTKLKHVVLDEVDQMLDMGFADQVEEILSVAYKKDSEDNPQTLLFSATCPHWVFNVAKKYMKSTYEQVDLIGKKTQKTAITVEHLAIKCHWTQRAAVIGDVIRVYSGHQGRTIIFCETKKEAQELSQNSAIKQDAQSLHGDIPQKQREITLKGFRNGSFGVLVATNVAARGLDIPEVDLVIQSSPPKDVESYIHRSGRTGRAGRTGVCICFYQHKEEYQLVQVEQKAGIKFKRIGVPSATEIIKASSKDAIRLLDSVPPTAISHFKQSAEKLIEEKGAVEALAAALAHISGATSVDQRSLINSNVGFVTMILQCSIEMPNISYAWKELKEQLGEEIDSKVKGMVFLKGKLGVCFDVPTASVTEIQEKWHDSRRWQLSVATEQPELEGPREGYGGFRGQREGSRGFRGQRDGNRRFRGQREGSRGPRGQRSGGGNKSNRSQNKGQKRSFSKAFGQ
Put plainly: fluorescence polarization; FP: 50 mM Tris pH 7.5, 50 mM KCl, 5 mM MgCl2, no ATP; Hill-slope fit; temperature not given in the material. The conditions noted are these: protein: recombinant; tags: N-terminal Trx-His6, cut with thrombin; chain copies: 2; label: 5'-FAM on RNA; R-loop: 15-mer RNA on DNA oligo 1; DNA duplex arms with unpaired DNA oligo 2 loop. On the technique in general: Polarisation of emitted light reports the rotation of a fluorescent probe.

Series [7] concerns the molecule itself. Put plainly: SEC-SAXS; SAXS coupled to size exclusion chromatography; oligomeric state from SAXS molecular weight estimates (Table S3).

As usually defined, the stoichiometry N is a count of units in the complex or per binding partner. As to DDX21_(Core-DD) (domain or fragment), the stoichiometry N with DDX21_(Core-DD) (human) [1], with DDX21_(Core-DD) (human) [2] and with DDX21_(Core-DD) (human) [3] was 2 each time.

B1: DDX21Fl monomer mutant (enzyme)
chain: T1 sequence with L611R, A612R, A613R, A614R, L615R, A616R
For B1, the “dsRNA unwinding (in vitro helicase assay with RNase T1), activity relative to the dimeric protein” value in series [4] was about 50%.

B2: full-length DDX21 (DDX21Fl), affinity tag cleaved (enzyme, human, UniProt Q9NR30 1-783, looked up)
chain: T1 sequence
notes: human DEAD-box RNA helicase DDX21, full length; Tag state is told only for the SEC-MALS mass (cleaved); Construct details are in the Transparent Methods; also called nucleolar RNA helicase II/Guα; source: Transparent Methods
Regarding B2, in series [5], the “stoichiometry N” value was 2.

B3: full-length DDX21 (DDX21Fl) with uncleaved affinity tag (enzyme, human, UniProt Q9NR30 1-783, looked up)
chain: T1 sequence
notes: human DEAD-box RNA helicase DDX21, full length; Form used in mass photometry; also called wild-type protein; source: Transparent Methods
For B3, the “stoichiometry N” value in series [6] was found to be 2.

B4: R-loop (mixed)
RNA: GUUUCGGAUCGACGC
DNA 1: GTACCCGGGGATCCTCTAGAGTCGAGCGTCGATCCGAAACTTGGCACTGGCCGTCGTTTTACAAC
DNA 2: GTTGTAAAACGACGGCCAGTGCCTTTTCCCAGCCTCAATCTCATCACTCTAGAGGATCCCCGGGTAC
By Kd is commonly meant the free concentration of one partner at which half of the binding sites on the other are occupied at equilibrium, for simple one-to-one binding. In the case of B4, the Kd with DDX21Fl amounted to 9.2 ± 0.7 nM.

B5: DDX21ΔN monomer mutant (domain or fragment)
chain: GAFSNFPISEETIKLLKGRGVTFLFPIQAKTFHHVYSGKDLIAQARTGTGKTFSFAIPLIEKLHGELQDRKRGRAPQVLVLAPTRELANQVSKDFSDITKKLSVACFYGGTPYGGQFERMRNGIDILVGTPGRIKDHIQNGKLDLTKLKHVVLDEVDQMLDMGFADQVEEILSVAYKKDSEDNPQTLLFSATCPHWVFNVAKKYMKSTYEQVDLIGKKTQKTAITVEHLAIKCHWTQRAAVIGDVIRVYSGHQGRTIIFCETKKEAQELSQNSAIKQDAQSLHGDIPQKQREITLKGFRNGSFGVLVATNVAARGLDIPEVDLVIQSSPPKDVESYIHRSGRTGRAGRTGVCICFYQHKEEYQLVQVEQKAGIKFKRIGVPSATEIIKASSKDAIRLLDSVPPTAISHFKQSAEKLIEEKGAVEARRRRRRHISGATSVDQRSLINSNVGFVTMILQCSIEMPNISYAWKELKEQLGEEIDSKVKGMVFLKGKLGVCFDVPTASVTEIQEKWHDSRRWQLSVATEQPELEGPREGYGGFRGQREGSRGFRGQRDGNRRFRGQREGSRGPRGQRSGGGNKSNRSQNKGQKRSFSKAFGQ
B5: the “dsRNA unwinding (in vitro helicase assay with RNase T1), activity relative to the dimeric protein” value in series [4] is about 50%.

B6: DDX21ΔN (domain or fragment, human, UniProt Q9NR30 186-783, looked up)
chain: B5 chain with R426L, R427A, R428A, R429A, R430L, R431A
notes: human DDX21 without the N-terminal 185 amino acids (start 186 worked out from this statement); source: Transparent Methods
With B6, in series [7], the “stoichiometry N” value was 2.
